Reference: patent publication US6905817B1, “Ret-independent signaling pathway for GDNF” (Licestia Ltd., priority 1998, dated 2005)
Entries after “also recorded” stand apart in the source; their conditions may differ.

Assays:
GFRα2^−/− DRG neurons = experiment: GDNF-evoked [Ca^2+]i changes, confocal microscopy, GFRα2^−/− DRG neurons; assay type: cell-based, mouse
Protocol: DRG from embryonic day 18 (E18) mice were treated with trypsin (Worthington), non-neuronal cells removed by preplating, and about 95% pure neurons cultured on poly-ornithine-laminin-coated glass coverslips in Ham's F14 medium (Imperial Laboratories) with serum substitute containing NGF, BDNF and NT-3 (all from PeproTech, 2 ng/ml if each) for at least 1 day before measurement. Neurotrophins were extensively washed out before GDNF application. GDNF was from PeproTech and donated by Cephalon, Inc. Ret-deficient mice (Schuchardt et al., 1994) were identified from heterozygote matings by the absence of kidneys and PCR-based genotyping. GFRα2-deficient mice were obtained from homozygote matings (Rossi et al., 1999).
[Ca^2+]i was measured using a Bio-Rad MRC-1024 confocal microscope equipped with an argon-krypton laser. The cells were loaded with 10 μM Calcium Green-1AM (Molecular Probes), a membrane permeable Ca^2+ dye, by 30 min incubation in serum free cell-culture media at 37 ° C. and 5 % CO2. After loading, the neurons were kept at room temperature in Dulbecco's PBS solution contained 20 mM HEPES (pH=7.4) for at least 20 min prior to the experiments. All compounds were applied to the bath by a peristaltic pump. 6 kD Heparin (Sigma) and Alexa 568 nm fluorescent dye (Molecular Probes) were loaded into the cells using Molecular Probes' pinocytotic influx loading reagent basically according to the manufacturer instructions. […] Cell injection was performed using Eppendorf microinjection system. The average intensity of fluorescence in the predefined ROI (Region Of Interest) was measured on-line using TimeCourse software from BioRad. The calibration of fluorescence traces was performed in vitro using Fmax and Fmin values obtained with the calcium calibration buffer kit (Molecular Probes). Because the calibration solutions may not reflect the intracellular environment, the experimental data are presented as delta [Ca^2+]i calculated using Kd=190 nM for Calcium Green-1.
Transgenic GFRα2 knock-out mice were produced in our laboratory. […]

p42/p44 MAPK = experiment: MAPK phosphorylation assay in SHEP neuroblastoma cells; assay type: cell-based, human; conditions: GDNF 100 ng/ml
Protocol: To assess GDNF-dependent MAPK and CREB phosphorylation in all studied cell lines, the semiconfluent cell monolayers were starved for 3 hours in serum-free medium, and then GDNF was applied for the indicated time. For the analysis of MAPK and CREB activation in Ret^−/− animals the DRG neurons were dissected from E18 mice and maintained in NGF-containing medium for 2 hours. After this time the neurons were deprived of NGF by placing them in NGF-free medium in the presence of anti-NGF antibodies. After 2 hr without NGF, the neurons were stimulated with GDNF. In the experiments involving Src-kinase inhibition, a Src-family kinase inhibitor PP2 was added at the indicated concentrations to the cell monolayers 5 min before GDNF application. In some experiments 1 μg/ml of soluble GFRα1 lacking a GPI anchor (GFRα1/Fc chimeric protein; R&D systems) was added 5 min prior to the GDNF application and was kept in the solution during the GDNF treatment, After stimulation, the cells were briefly washed with PBS/sodium vanadate and lysed in the buffer containing TBS, 2 mM EDTA, 1% NP-40, 1% Triton X-100, 1 mM PMSF, 1 mM Na3VO4 and a Complete, protease inhibitors cocktail (Boehringer Mannheim). Total cell protein for each extract was measured by MicroBSA (Pierce) and an equivalent amount of protein was resolved electrophoretically on 10% polyacrylamide gels. […]

PLCγ = PLCγ tyrosine phosphorylation (immunoprecipitation and Western blotting) in SHEP cells; assay type: cell-based, human
Protocol: To determine changes in GDNF-evoked PLCγ tyrosine phosphorylation the Western blotting assays were performed as described in Khare et al. (1997). Briefly, SHEP neuroblastoma cells were pre-incubated with 1 mM sodium vanadate in serum-free medium for 30 min. at 37 ° C. and then were treated at 37 ° C. with 1-100 ng/ml GDNF for 1 min. unless otherwise indicated. Incubation was stopped by the addition of ice-cold PBS buffer containing 1 mM sodium vanadate. Whole cell lysates (final protein concentration 0.1-0.3 mg/ml) were prepared at 4° C. in an extraction buffer (pH 7.5) containing 50 mM Tris-HCl, 137 mM NaCl, 1 mM sodium vanadate, 1 mM PMSF, 10% glycerol, 1% NP-40 and protease inhibitors cocktail (Boehringer). Phosphotyrosine-containing proteins were immunoprecipitated with 4G-10 antibodies (Upstate Biotechnology), collected with Protein A Sepharose beads and separated on the 7.5% SDS-PAGE. The proteins were transferred to Hybond-ECL nitrocellulose membrane, and PLCγ was assessed by Western blotting using anti-PLCγ antibodies (Upstate Biotechnology). In some experiments we first immunoprecipitated PLCγ from the cell lysate using anti-PLCγ antibodies and probed the filter with anti-phosphotyrosine 4G-10 antibodies as described above. […]

B1: Glial cell line—derived neurotrophic factor (protein, UniProt P39905 78-211, looked up)
Glial cell line-derived …: SPDKQMAVLPRRERNRQAAAANPENSRGKGRRGQRGKNRGCVLTAIHLNVTDLGLGYETKEELIFRYCSGSCDAAETTYDKILKNLSRNRRLVSDKVGQACCRPIAFDDDLSFLDDNLVYHILRKHSAKRCGCI
notes: TGF-β family-related neurotrophic protein; from PeproTech and donated by Cephalon, Inc
- change in [Ca^2+]i (GFRα2^−/− DRG neurons; GDNF 100 ng/ml, normal external Ca^2+): evoked both transient and sustained [Ca^2+]i elevation; also recorded: same pattern of fast and slow kinetics of Ca^2+ elevation as the wild type neurons
- change in [Ca^2+]i (GFRα2^−/− DRG neurons; GDNF after nominal removal of extracellular calcium (about 20 μM)): profound rapid and oscillatory (5 out of 9 cells) [Ca^2+]i increase
- p42/p44 MAPK phosphorylation (p42/p44 MAPK): transient and profound increase of p42/p44 MAPK phosphorylation
- time to return to basal tyrosine phosphorylation levels of PLCγ (PLCγ; GDNF): ≤ 5 min
- PLCγ tyrosine phosphorylation (PLCγ; GDNF 1-100 ng/ml, 1 min): significantly increased PLCγ tyrosine phosphorylation; also recorded: dose-dependent increase in PLCγ tyrosine phosphorylation
